Biological target: hCCNT1-C261Y (human) (UniProt O60563)
Test: cell-based or functional assay

Sequence of UniProt O60563 (O60563 whole entry C261Y): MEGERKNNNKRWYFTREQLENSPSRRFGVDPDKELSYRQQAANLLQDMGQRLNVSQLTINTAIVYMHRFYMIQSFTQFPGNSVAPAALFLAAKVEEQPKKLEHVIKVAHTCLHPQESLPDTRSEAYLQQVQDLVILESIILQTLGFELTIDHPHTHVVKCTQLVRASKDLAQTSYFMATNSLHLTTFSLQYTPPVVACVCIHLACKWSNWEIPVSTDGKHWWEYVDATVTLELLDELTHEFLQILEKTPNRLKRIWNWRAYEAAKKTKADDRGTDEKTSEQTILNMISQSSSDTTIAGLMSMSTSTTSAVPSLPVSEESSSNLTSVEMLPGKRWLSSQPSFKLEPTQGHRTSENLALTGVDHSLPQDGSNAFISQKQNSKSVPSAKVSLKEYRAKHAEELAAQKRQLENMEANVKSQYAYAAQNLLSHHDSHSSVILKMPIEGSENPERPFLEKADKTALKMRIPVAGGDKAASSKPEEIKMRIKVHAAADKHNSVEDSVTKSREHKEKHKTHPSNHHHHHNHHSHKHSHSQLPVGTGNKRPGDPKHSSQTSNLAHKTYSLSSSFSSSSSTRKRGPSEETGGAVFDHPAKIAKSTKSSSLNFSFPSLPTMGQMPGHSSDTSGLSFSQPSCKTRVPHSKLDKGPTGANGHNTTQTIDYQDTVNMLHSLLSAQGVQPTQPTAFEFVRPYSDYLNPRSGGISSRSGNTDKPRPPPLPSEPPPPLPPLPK

Question: How did the fold decrease in Tat-dependent GFP expression, dual-colour single-round HIV-1 reporter virus, hCCNT1-C261Y Jurkat cells against wild-type parental cells turn out when HIV-1 Tat protein was run?
Answer: > 16 fold
